Legend:
[1] = molecular target: T1, bovine serum albumin (BSA) (bovine, UniProt P02769 25-607); experiment: phage ELISA, 1% BSA coated, anti-M13-HRP detection
T1 construct: Control antigen coated at 1% in PBS (pH 7.4); also called negative control antigen
Description: (§1) Selected single-chain phage antibodies that were obtained in the screens described above were validated in ELISA for specific enterococcal binding activity, i.e. binding to one or more enterococcal strains prepared as described supra. 2.5×10⁸ bacteria were coated overnight at 4° C. to Maxisorp™ ELISA plates in 50 μl 50 mM carbonate buffer, pH 9.6. As negative controls, the complex antigens 2% ELK and 1% BSA both in PBS (pH 7.4) were coated. Wells were washed in PBS containing 0.1% (v/v) Tween-20 and blocked with 300 μl PBS containing 2% ELK for at least 1 hour at room temperature. The selected single-chain phage antibodies were incubated for 15 minutes in an equal volume of PBS containing 2% ELK to obtain blocked phage antibodies. The plates were emptied and the blocked single-chain phage antibodies were added to the wells. Incubation was allowed to proceed for one hour at room temperature, the plates were washed in PBS containing 0.1% (v/v) Tween-20 and bound phage antibodies were detected using an anti-M13 antibody conjugated to peroxidase. Absorbance at 492 nm was measured using a spectrophotometer. As a control, the procedure was performed simultaneously without single-chain phage antibody and with a negative control single-chain phage antibody directed against West Nile virus envelope protein (SC04-374).

[2] = molecular target: T1, bovine serum albumin (BSA); experiment: phage ELISA, BSA coated
Description: as §1

T1 sequence (P02769 25-607 limits assumed): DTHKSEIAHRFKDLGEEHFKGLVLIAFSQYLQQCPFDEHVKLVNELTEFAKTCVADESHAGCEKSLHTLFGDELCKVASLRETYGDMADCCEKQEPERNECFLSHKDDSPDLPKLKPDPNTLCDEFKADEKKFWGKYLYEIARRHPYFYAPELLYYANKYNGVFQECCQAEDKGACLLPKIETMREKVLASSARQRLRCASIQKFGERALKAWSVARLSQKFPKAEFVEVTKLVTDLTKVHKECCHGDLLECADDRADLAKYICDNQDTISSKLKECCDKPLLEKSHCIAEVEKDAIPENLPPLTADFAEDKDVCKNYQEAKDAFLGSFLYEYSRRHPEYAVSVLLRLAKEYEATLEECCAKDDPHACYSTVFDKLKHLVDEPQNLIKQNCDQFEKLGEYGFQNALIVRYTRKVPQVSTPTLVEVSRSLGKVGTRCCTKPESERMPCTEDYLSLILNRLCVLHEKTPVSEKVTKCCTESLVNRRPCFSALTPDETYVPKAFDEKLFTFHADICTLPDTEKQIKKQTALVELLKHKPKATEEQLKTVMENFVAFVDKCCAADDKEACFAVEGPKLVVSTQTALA

Binder	OD492 nm [1] [OD492 nm]	binding result [2]
SC06-016 (scFv, Vl 135-241); also called single-chain phage antibody SC06-016) scFv: QVQLVQSGPEVKKPGASVTVSCKASGYSFSSYGISWVRQAPGQGLEWMGRIIPVGGNTLYSQMFQGRVTMTSDTSTSTVYLELSSLRSEDTAVYFCARDGGRWQFDYWGQGTLVTVSSGTGGSGGTGSGTGGSTDIQLTQSPSSVSASVGDRVTITCRASQGISNWLAWYQQKPGKAPELLIYAASSLQSGVPPRFSGSASGTDFTLTISSLQPEDFATYYCQQSKNFPYTFGQGTKVEIK	0.044	no binding
SC06-049 (scFv, Vl 137-246); also called single-chain phage antibody SC06-049) scFv: QVQLVQSGAEVKKPGESLKISCKGSGYSFTSYWIGWVRQMPGKGLEWMGIIYPGDSDTRYSPSFQGQVTISADKSIGTAYLQWSSLKASDTAMYYCARLFRVRGGHFDSWGQGTLVTVSSGTGGSGGTGSGTGGSTQSALTQPASVSGSPGQSITISCTGTNSDVGGYNYVSWYQQHPGKAPKLLIYDVTNRPSGVSNRFSASKSGNTASLTISGLQAEDEADYYCSSFTSSSTRVFGGGTKLTVL	0.042	no binding
SC05-179 (scFv, Vl 134-244); also called single-chain phage antibody SC05-179) scFv: EVQLVESGGGLVKPGGSLGLSCAASGFFFSDYSMSWIRQAPGKGLEWLSNISGSGHSTKYAESMRGRITISRDNAKKSLSLQLNSLRAEDTAVYFCVRGGGYRMDVWGQGTTVTVSSGTGGSGGTGSGTGGSTQSALTQPRSVPGSPGQSVTISCTGTSSDVGGYNYVSWYQQHPGKAPKLMIYDVSKRPSGVPDRFSGSKSGNTASLTVSGLQAEDEADYYCSSYAGSNNFVVFGGGTKLTVL	0.045	no binding
SC05-159 (scFv, Vl 140-249); also called single-chain phage antibody SC05-159) scFv: QVQLVQSGAEVKKPGATVKISCKVSGYTFTDYYMHWVQQAPGKGLEWMGLVDPEDGETIYAEKFQGRVTITADTSTDTAYMELSSLRSDDTAVYYCARAEVMTTINNWYFDLWGRGTLVTVSSGTGGSGGTGSGTGGSTSYVLTQPPSASGTPGQRVTISCSGSSSNIGSNNVSWYQQLPGTAPKLLIYSNNQRPSGVPDRFSGSKSGTSASLAISGLQSEDEADYYCAAWDDSLNGWVFGGGTKLTVL	0.06	no binding
SC06-432 (scFv, Vl 137-246); also called single-chain phage antibody SC06-432) scFv: QLQLQESGPGLVKPSQTLSLTCTVSGGSISSGGYYWSWIRQHPGKGLEWIGYIYYSGSTYYNPSLKSRVTISVDTSKNQFSLKLSSVTAADTAVYYCARERILDRMNDYWGQGTLVTVSSGTGGSGGTGSGTGGSTQSVVTQPPSVSGAPGQRVTISCTGSSSNIGAGYDVHWYQQLPGTAPKLLIYGNSNRPSGVPDRFSGSKSGTSASLAITGLQAEDEADYYCQSSDSSLNILFGGGTKLTVL	0.059	no binding
SC05-187 (scFv, Vl 138-246); also called single-chain phage antibody SC05-187) scFv: EVQLVQSGAEVKKPGESLKISCKGSGYSFTKYWIGWVRQMPGKGLEWMGIIYPGDSDTRYSPSFQGQVTISADKSISTAYLQWSSLKASDTAMYYCARGSGIATGNSFDSWGQGTLVTVSSGTGGSGGTGSGTGGSTQTVVTQEPSLTVSPGGTVTLTCASSTGAVTSGYYPNWFQQKPGQAPRALIYSTSKKHSWTPARFSGSLLGGRAALTLSGAQPEDEADYYCLLSYGGARVFGGGTKLTVL	0.055	no binding
SC06-415 (scFv, Vl 133-242); also called single-chain phage antibody SC06-415) scFv: EVQLVESGGGLVQPGRSLRLSCAASGFTFDDYAMHWVRQAPGKGLEWVSGISWNSGSIGYADSVKGRFTISRDNAKNSLYLQMNSLRAEDSAVYYCARGGQRFDFWGQGTLVTVSSGTGGSGGTGSGTGGSTQSALTQPPSASGSPGQSVTISCTGTSSDVGGYNYVSWYQQLPGKAPKLLIYDVNNRPSGVSNRFSGSKSGNTASLTISGLQAEDEAEYYCGSSVGSRLRIFGGGTKLTVL	0.044	no binding
SC06-429 (scFv, Vl 138-249); also called single-chain phage antibody SC06-429) scFv: QVQLVQSGAEVKNPGESLKISCKGSGYTFTSYWIGWVRQMPGKGLEWMGSIYPGDSDTRYSPSFQGQVTISVDKSISTAYLQWSSLKASDTAMYYCARQYRAGSTTRFDPWGQGTLVTVSSGTGGSGGTGSGTGGSTDVVMTQSPLSLPVTPGEPASISCRSSQSLRHRNGNNYLDWYLQKPGQSPQLLIYLGSNRASGVPDRFSGSGSGTDFTLKISRVEAEDVGIYYCMQALQTPLTFGGGTKVEIK	0.068	no binding
SC06-043 (scFv, Vl 140-249); also called single-chain phage antibody SC06-043) scFv: EVQLVESGAEVKKPGESLKISCKGSGYSFTSYWIGWVRQMPGKGLEWMGIIYPGDSDTRYSPSFQGQVTISADKSISTAYLQWSSLKASDTAMYYCARRYCSGGTCSDGFDIWGQGTMVTVSSGTGGSGGTGSGTGGSTQSALTQPPSASGSPGQSVTISCTGTSSDVGGYNYVSWYQQHPGKAPKLMIYEVSKRPSGVPDRFSGSKSGNTASLTVSGLQAEDEADYYCSSYAGSNNLVFGGGTKLTVL	0.045	no binding

Source: US20090169562A1 (CRUCELL HOLLAND B V, published 2009)
